Laboratory results published in US20260242834A1, “ENZYMES, POLYNUCLEOTIDES ENCODING SAME, AND METHODS OF USING SAME FOR PRODUCING MESCALINE” (YEDA RESEARCH AND DEVELOPMENT CO. LTD., priority 2023, published 2026).

What was measured:
[1] = molecular target: 5-HT2A serotonin receptor (Homo sapiens, UniProt P28223); conditions: 5-HT2A serotonin receptor agonist, cited from earlier work
3-MeO-tyramine 7 = test: Heterologous expression in yeast supplemented with 3-MeO-tyramine 7; format: cell-based, S. cerevisiae; conditions: two days from galactose induction; compared with LwCYP84A220
N. benthamiana leaves = test: Transient expression in N. benthamiana leaves by agroinfiltration; format: cell-based, Nicotiana benthamiana; conditions: tyramine 4 to dopamine 3 and 3-MeO-tyramine 7 to 3,4-diOH-5-MeO-phenethylamine 6
Source text: TyDC2, CYP1-12, PPO1, MT1-4, OMT1,5,10,11 and the previously characterized BvCYP76AD6 were amplified and cloned in pAlpha2-NPT II-Ubq10-CCD-Ter10 vector digested with BsaI using ClonExpress II One Step Cloning kit (Vazyme). For BvCYP76AD6 the inventors used stocks of previously transformed bacteria containing the specific gene (Polturak et al., 2016; New Phyol.). All plasmids were sequenced and transformed into Agrobacterium tumefaciens strain GV3101 by electroporation. A. tumefaciens harboring the overexpression constructs were grown overnight at 28° C. in Luria-Bertani (LB) medium in the presence of kanamycin and gentamycin. Bacterial cells were collected by centrifugation, washed, and resuspended in infiltration buffer (10 mM MES, 2 mM MgCl2, 2 mM Na3PO4, 0.5% glucose and 100 mM acetosyringone) to OD600=0.8. Individual and/or equal volumes of A. tumefaciens suspension with different expression vectors were combined to obtain the desired gene combinations and incubated for 2 h at room temperature. The solutions were infiltrated into 4- or 5-week-old N. benthamiana leaves from the abaxial side using a 1-ml needleless syringe. […] Leaf samples were flash frozen and extracted as previously described with 300 μl ice-cold methanol with 0.1% formic acid and analyzed via LC-MS. […]

[2] = OMT in vitro assays with lysates from transformed E. coli in the presence of SAM; format: biochemical, Lophophora williamsii (Peyote); conditions: substrates 3, 6 or 9

5-HT2A serotonin receptor, sequence (P28223 whole entry): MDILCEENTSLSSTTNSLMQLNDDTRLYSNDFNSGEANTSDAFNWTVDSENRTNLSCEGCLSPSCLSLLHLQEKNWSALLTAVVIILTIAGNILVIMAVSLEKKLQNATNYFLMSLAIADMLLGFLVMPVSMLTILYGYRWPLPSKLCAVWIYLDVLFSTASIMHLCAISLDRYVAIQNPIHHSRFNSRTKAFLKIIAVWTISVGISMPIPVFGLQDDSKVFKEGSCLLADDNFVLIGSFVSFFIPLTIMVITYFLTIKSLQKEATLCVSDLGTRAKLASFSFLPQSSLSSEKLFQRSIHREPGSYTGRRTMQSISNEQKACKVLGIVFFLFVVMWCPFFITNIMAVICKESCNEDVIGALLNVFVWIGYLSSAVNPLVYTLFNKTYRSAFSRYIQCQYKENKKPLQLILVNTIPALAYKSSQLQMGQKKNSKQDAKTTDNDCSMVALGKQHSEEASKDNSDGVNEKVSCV

COc1cc(CCN)cc(OC)c1OC [Mescaline]
times less potent effects than LSD ([1]; compared with LSD): 1,000-3,000 times | times less potent than psilocybin ([1]; compared with psilocybin): 30 times

B1: LwCYP12: Peyote CYP76AD-subfamily cytochrome P450 hydroxylase (protein, listed as Lophophora williamsii)
chain: MGYYAIFAVVLPFLWTCFYLLKLNPTSKLTSTIRLPPGPRPLPIIGNLHQLGERPHRTLANLAKVYGPIISLKFGSITTIAVSSADVAKEMFQKHDLALASRKVPAAVRANGHDNFSVAWLPVTPKWRFLRKISAIQLFSTQRLDARQSLRQAKVVELLDYIKARSNAGEPVDIGEAAFTTSLNLLSNTFFSMDLASYSSAASGEFKELVWKIMEEIGKPNLADCFPLVGFISRMSVNRELMGYGNKLNEVFAEIIEKRLSAANSSEGRGNGDVLDTLLRIMEEDDSELSLDDIMHLLMDFFTAGTDTTSSTLEWAMTELLHNPEKMAKAQAELEQVLGKDTVSIQESDIAKLLYLQATVKETLRMHPPTVFLLPRKADSDIDLYGHLVPKNAQVFVNLWAISYDPSTWENPDLFSPERFLDQDIDMKGQDFGFIPFGAGRRICPGLTLAYRMLNLMLGTLIHVFNWKLGDGLSREDLDMTDKFGITIQKAKPLRAIPILK
catalytic activity for the production of 3,4-diOH-5-MeO-phenethylamine 6 (3-MeO-tyramine 7): superior catalytic activity | hydroxylation activity in planta (N. benthamiana leaves): regioselectively catalyzes the two meta hydroxylations

B2: OMT5: Peyote O-methyltransferase (protein, listed as Lophophora williamsii)
chain: MGSASGSAERTQMGEDEACSFAMTITSGSVPPMVLKAVIELDVLEIIKRAGPGAHLSPAEIAAQLPTTNPGAAAMLDRMLRLLASYDVLSYSLHTLPDGRVERLYGLAPVCQFLTNNEDGVTLSALSLMNQDKVLMESWYHLKDAVLDGGIPFNKAYGMTAFEYHGTDPRFNKVFNNGMSNHSTITMKKLLENYKGFEGVSTLVDVGGGTGATLNMIISKHPTIKGINFDLPHVIEDAPTYPGVEHIGGDMFVSVPKGDAIFMKWICHDWSDEHCLKFLKNCYAALADHGKVIVCEYILPVAPETNHAARTVFHVDAIMLAHNPGGKERTEQEFESLAKGAGFEGFRVACSAYDTKVMEFLKNN
O-methylation regioselectivity [2]: O-methylated the two meta hydroxyl groups
